Measurements published in the supplement of paper PMC12636428.

System: Saccharomyces cerevisiae
Test: transcriptional activation domain activity (GFP:mCherry ratio, weighted mean of sorted bins, harmonized to initial dataset scale) (arbitrary fluorescence ratio units); higher = stronger transcriptional activation
Conditions: beta-estradiol 1 µM; induction time 4 h
Summary of the method: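 The activation activity of each tile is the read-weighted mean of bin median fluorescence, averaged across its barcodes and mapped linearly onto the scale of the initial dataset. Tiles were fused to an estradiol-inducible synthetic transcription factor, barcoded, and integrated at URA3 in yeast diploids carrying a GFP reporter. Induction used 1 uM beta-estradiol in SC for 4 hours at 30 °C, after which cells were sorted into 8 GFP:mCherry bins, and any tile with fewer than 50 reads was dropped.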

Sequence	transcriptional activation domain activity
MTQLYPFFLLFFAGLTMLLLLNHTFLPRVSVKSVKSLFRCNVRGFGTFFLFFL	43800
MTRAFTIMINLITIVLSFLMSQSFTSYVCHILLCPLANLRPQLLYIWWVSPVL	54200
MTRMLPLSFELFKFIVNLCLALVFTSWLFSWSKMLLILGLICVCRDFLSLVIV	31700
MTSPPLIKEEQTSSDESQIQQQSKTRRPKTRASVACTSCRDRRIRCVVPSGKK	55700
MTSPPPPSITVSHLALVPFFRTPVSAYSLLFLLFFRLGLCLSCWLFLLFSFLF	65800
MTSRHSFKAIKVLVICCVFLFFLLLKRKDHFNSCCLIFHIKIGLIDVLIFFYF	41900
MTSRLHIICHICVFYGYILMFQAITSYHYFILLCILILILYLLTFILAHFYKY	36800
MTSWPLLPPYSIHAMIKMIAFSSLFCSFFSLHLFFYYYLPLYIAVFIFFIVTH	32400
MTSYVHQALVRFIGVTLTYQEYKEKLGRSFYLRNLAENTTMLGFLCWVNILHF	33800
MTTDNTQKPTISLVEKVDLVFRLLAIAPLRHAIHFTRSLFIAYWRGLPLRLHI	70300
MTTLYISFLFFLFCASFTFCTIFFFFFFFFTQWLYSSPLHLSLSLSLLFLFLI	65100
MTTNRDKAFFFFFNCERPIFNFFFCPFFLFFYIPFYFPYPYFFSFSYFSFLYL	78200
MTTWHKVFFFFRNLSFFCLFCLSCFFFLLLFLMKLETTNKVSILYLSLTLILF	43700
MTVDHDFNSEDILFPIESMSSIQYVENNNPNNINNDVIPYSLDIKNTVLDSAD	76400
MTVDTLSYTLFPFYSLLSHFLLLLAEIVLCLKYCLLLTLFSILLFLLVFLFLA	32800
MTVEPSISLLFIDYLLFLIPFLSLFILFSLVLLLSYISPCNFFFFAISSQLPW	39200
MTVIRFLKMIGPFFFLLLSFLLFPFFFFFIPFKMTLLSFLLLFPLFILHSVHC	47500
MTVLQYPFRFIVRTHFPLIWAYSSSLGVGYVFLIGSFFLFISLHPLPLFCLLC	66100
MTVMTLCFFGSSFGPWAGAWFCCLLLLLLLLVIAVSLFLHVCFAWEFWFCLCY	39500
MTVSLQLYSHTLQLVLCCACAPPLLKFLLFCFFFFFWFFFFFWFCFWFFLLMF	38000
MTVSWLRRLGTFLFEFFFFFSFFSFFFFLFSFFFFLFFLFSYFPFFSFFSFFS	21600
MTVTPVNGYGWSRANKIGWTVFYISLWGYSNCSYFFPLPLYFSYVFFFFPFYP	42200
MTWFGILPPFSWPWIYPRSFGMCGNLSTTLFLHVLIALFFFFCLFFHLCLLWL	50200
MTWFLSFWLKCGFVLLGLFFDFFLFCNRFLYASISFFFFFHSLSLFWNRNHLF	79900
MTWFTATLTVLYHLTHPIITIFRWLLLPLTPFYHLFSYIFSTLFLLPSLYIYF	53100

Sequence	transcriptional activation domain activity
MTWRGLSLLLSVLLITWCDPAFFPPVYIQFLFIFIFAWLHLIFLFLIQYLGCI	37900
MTYLPFINFSLDIFVIVIVIVIYFPFFVTNFFNWFFSPFWCYLINYLFNLNLF	52400
MTYTFDLFSSFLSIVYMPHMATLYFLFFFLLLQCGYFIVLCFFFFHCVLCCFS	67000
MVAAATARTRRAATVATRRTRPVVMAMAVVVATRNRRATTRAAGIRQAGIRRV	45900
MVAVVEVWVGEGVGEFWHLVKVWEGFLKLEYPVFFFDVWFFYDPFFCALGFFI	79300
MVCCAFFVVFFLIEIFIILFLCLPFFSFLFLLWEGRVGGYALWLLSVQVCVRT	55800
MVCFKRSGLSLVFFFFFFFFFLLLVFFLFFFSLLLPIIISLVVRADLLMVHPH	31200
MVCFQITFLYSAFFPLFSFSFLLNIFPTISIFPHLLQILAAFFVLFYAFFSTM	55100
MVCRDILHFWWMFISLNANAEDIIISRSSSWLSSPLLVCFLVVCNVVCVYFYI	72800
MVCTLDHFQFVGLIYFAFFFIVISYFIDSVIFILFFVYFPFFVFLLLFVIAFY	54800
MVDSRMLGETETGLFLSFIFFRIIFILVLPYLASCSKYVHLLFLYCFLLLRFF	54600
MVEAQDSSLSSTLFYLSFLDIGATFYTFLLLFFFLEDLEGFLLFIVFWMLLLV	44100
MVEGCLLHFQFSFPPFFFCFFFGHLGGFVNFCDSLIFKVLRALGLVMNVFTII	70500
MVEGDEKPARNGGPALQVIVLGSGGGPREDNTTAFLVRSVASGWKRGSVLAVD	55100
MVFDCEFQHIQFSGSLLCLPLWDFFLRCIVCGHRSIFYIFYIIFVILFLHFLT	30500
MVFFFFFFFLEGGGLVGWLCSALIFPLSFFLSSKLCLLLPLYYYSNCVFFFLC	75600
MVFFFFFFHSVEFHFFLWYLSFFRFFFVFLLFPWLDWIGRAGIGLELLLSLFI	47400
MVFFFFGRRGGCLVGFVVLLSFPLSFFLSFKLCLLLPLYYYSICVFFFSCVFF	55600
MVFFLYISLLIFFFTATIAALPCMVWWILAVHCWLFIFLDPLAFFYYSFFPFF	26300
MVFFTSSFLLGFFSFVSFRNHCSFFLMAPFLTGSELFLFFVLLFILFFFFGFG	48800
MVFFTSSFLLGFFSFVSFRNHCSFFLMAPFLTGSELFLFFVLLFILFFFLALA	64900
MVFGGIFFQLRGCAVGWSLGYSVSCFFLFFLFVFYAVSFLVWSGCGFLFSFFF	62700
MVFGHWCVSRLSHNSQILFLLTMLSFPVCENFFGFICNFIILLFARRTLFFVL	59500
MVFGVFFVYVYLSSWVFVLWFFSLSLSHGLAYLSFFPFSFLSFFPSLSLFPPC	62900
MVFIIFFAAFYTLFLYHSSLFFTLPFASIFFLLFFVRFIFFISVFLLFFLLGL	51100

Sequence	transcriptional activation domain activity
MVFLLIFIVSTLFFCLFLYLLLPSFFYVIFALLAHIFVFSVSLHRQPLLLYLS	49300
MVFPSKSLFYLVGPCLSFFFVPPTWYDVFHLLFSPMTLDYYPFVLWYSPFLST	39300
MVFSFLLDILAGILYYYLVLGSHILASCFDYRWFYFFFFFFVLFFSLLFSVFL	61900
MVFSLASLSLLCLCLISFFFYLFFFFFFYQIPSPCFALWLANFYLSCRAWLDK	46600
MVGLVGFWVLFLFFLCPFLFSCPLPLPPLRPSLYIFQISYGSFFFLLFFSIFF	62300
MVGLVGFWVLFLFFLCPFLFSCPLPLPPLRPSLYIFQISYGSFFSCFSFLFFS	63800
MVGLVGFWVLFLFFLCPFLFSCPSPSPPLRPSLYIFQISYGSFFSCFSFLFFS	68700
MVGRGCAVQVMIYPLFFVPGFLGFGFLVCYHFPFFMSLLWVLAWLRFWLVISS	64400
MVGVNGDHELLLCAIMFPPVLLIINSLLVSILFNDCFLVLSDILLCWMLSVVV	50400
MVHFLVTLPYFILQCLTWLLRFHFFLPCLTFLLCFHLFFGTSLLLSFSMFSWA	50300
MVHIRTVVSFIFLVAGVLWTLFYLFIYFCLWDRRGHYVFLFCFCGCSRFMHFV	56500
MVHIVVVLCIVFCLLLCFKRRAQQLSSYCHASLRYFNLPPNFHQYYEQRFILV	78400
MVICFHSLFLQLTTCVLDLYLHYGFLVLFLFLFFIFFPASYFSAYFFFFFIFC	35900
MVIFRLGSAPFFFLLFLFVLFFRFFFLVCCCLYGWVSVFLLLFFLRFFVSKWG	50700
MVILLLFFVFRVNFVIVLAVSIPRQASFHVIHRFTYLLRRLQDMLNTTHRYAA	40500
MVILMMGGEYGHFLGFSFYYFLHVWDGEEYYYCCGFYLSQSLLSILLCILLYL	55400
MVIMYKFVFYTGFDRFVFFFWDFFFFFFFFCMLSMGYFSYFIFILSLLESVLV	26200
MVINGLPWLVALSIPFTFLASLTHSSWHPLLLRSHSTWRLYWWLVLVLRMHMT	41500
MVIQKYMFLYFLFCILIFLCIQDLDQDKYNDSLWCSRPFYCHNLFIIILAFIH	51800
MVIRYGKLNLKYHPVHCLNHFQILCLSWAFCALLDPVGLIVSILLWKLLPTIE	69300
MVIWRDTLLITLHGLCGGILLRFPSAVNLFHCFIDINSPIGITILTLFVLHLC	70200
MVKGRGRGGQVLFLFLFLLLFFLFLFLSLFLFILFFLALFFWTFFVLFCFVWG	66200
MVKLLLTRLPYFCVLVYCVFRYPIATFCLDIFLFFKQLCQNAHAIQWPQISWL	77200
MVKSFALGGLILLFSFLLLLLLLSLLLLFISSLLSLSLIPFFLFDSLSIARFS	64400
